Experimental data reported in patent US20180296632A1 (DIACCURATE, published 2018).
[ ]: non-standard residue; d: D form. 2Nal = N[C@@H](Cc1ccc2ccccc2c1)C(=O)O

Biological target: Recombinant PLA2GIB enzyme (sPLA2GIB produced in E. coli) (UniProt P04054 23-148)
Test: cell-based or functional assay

Sequence of Recombinant PLA2GIB enzyme (sPLA2GIB produced in E. coli) (P04054 23-148 limits assumed): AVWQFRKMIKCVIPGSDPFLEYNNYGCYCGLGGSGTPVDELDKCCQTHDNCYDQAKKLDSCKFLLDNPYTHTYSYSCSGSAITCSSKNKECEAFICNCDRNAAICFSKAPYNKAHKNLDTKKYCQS

B1: Peptide I (cyclic(2-NaphthylAla-Leu-Ser-2-NaphthylAla-Arg)) (peptide)
peptide: cyclo([2Nal]LS[2Nal]R)
IC50 of inhibition of PLA2GIB activity in the bioassay (inhibition of IL-7-induced nuclear translocation of phospho STAT5 in CD4 T cells, STED microscopy): ~4.9 µM
